Laboratory results taken from US20220089722A1 (NANTONG YICHEN BIOPHARMA, published 2022).

B1: IgFD-32(anti-CD3/EGFR) (bispecific antibody, human IgG1, kappa, lambda)
chain 1: EVQLVESGGGLVQPGGSLRLSCAASGFTFNTYAMNWVRQAPGKGLEWVARIRSKYNNYATYYADSVKDRFTISRDDSKNTLYLQMNSLRAEDTAVYYCVRHGNFGNSYVSWFAYWGQGTLVTVSSASTKGPQVQLQESGPGLVKPSETLSLTCTVSGGSVSSGDYYWTWIRQSPGKGLEWIGHIYYSGNTNYNPSLKSRLTISIDTSKTQFSLKLSSVTAADTAIYYCVRDRVTGAFDIWGQGTMVTVSSASTKGPSVFPLAPSSKSTSGGTAALGCLVKDYFPEPVTVSWNSGALTSGVHTFPAVLQSSGLYSLSSVVTVPSSSLGTQTYICNVNHKPSNTKVDKKVEPKSCDKTHTCPPCPAPPVAGPSVFLFPPKPKDTLMISRTPEVTCVVVDVSHEDPEVKFNWYVDGVEVHNAKTKPREEQYNSTYRVVSVLTVLHQDWLNGKEYKCKVSNKGLPSSIEKTISKAKGQPREPQVYTLPPCRDELTKNQVSLWCLVKGFYPSDIAVEWESNGQPENNYKTTPPVLDSDGSFFLYSKLTVDKSRWQQGNVFSCSVMHEALHNHYTQKSLSLSPGK
chain 2: not shown
notes: (ProA)/(CH1) = purification resin; also called IgFD-32(ProA); IgFD-32(CH1)
B2: IgFD-33(anti-CD3/EGFR) (bispecific antibody, human IgG1, kappa)
chain 1: QVQLQESGPGLVKPSETLSLTCTVSGGSVSSGDYYWTWIRQSPGKGLEWIGHIYYSGNTNYNPSLKSRLTISIDTSKTQFSLKLSSVTAADTAIYYCVRDRVTGAFDIWGQGTMVTVSSASTKGPEVQLVESGGGLVQPGGSLRLSCAASGFTFNTYAMNWVRQAPGKGLEWVARIRSKYNNYATYYADSVKDRFTISRDDSKNTLYLQMNSLRAEDTAVYYCVRHGNFGNSYVSWFAYWGQGTLVTVSSASTKGPSVFPLAPSSKSTSGGTAALGCLVKDYFPEPVTVSWNSGALTSGVHTFPAVLQSSGLYSLSSVVTVPSSSLGTQTYICNVNHKPSNTKVDKKVEPKSCDKTHTCPPCPAPPVAGPSVFLFPPKPKDTLMISRTPEVTCVVVDVSHEDPEVKFNWYVDGVEVHNAKTKPREEQYNSTYRVVSVLTVLHQDWLNGKEYKCKVSNKGLPSSIEKTISKAKGQPREPQVYTLPPCRDELTKNQVSLWCLVKGFYPSDIAVEWESNGQPENNYKTTPPVLDSDGSFFLYSKLTVDKSRWQQGNVFSCSVMHEALHNHYTQKSLSLSPGK
chain 2: DIQMTQSPSSLSASVGDRVTITCQASQDISNYLNWYQQKPGKAPKLLIYDASNLETGVPSRFSGSGSGTDFTFTISSLQPEDIATYFCQHFDHLPLAFGGGTKVEIKTVAAPSVFIFPPQAVVTQEPSLTVSPGGTVTLTCRSSTGAVTTSNYANWVQQKPDHLFRGLIGGTNKRAPGTPARFSGSLLGDKAALTISGAQPEDEAEYYCALWYSNLWVFGGGTKLTVLKRTVAAPSVFIFPPSDEQLKSGTASVVCLLNNFYPREAKVQWKVDNALQSGNSQESVTEQDSKDSTYSLSSTLTLSKADYEKHKVYACEVTHQGLSSPVTKSFNRGECDKTHTCPPCPAPPVAGPSVFLFPPKPKDTLMISRTPEVTCVVVDVSHEDPEVKFNWYVDGVEVHNAKTKPREEQYNSTYRVVSVLTVLHQDWLNGKEYKCKVSNKGLPSSIEKTISKAKGQPREPQVCTLPPSRDELTKNQVSLSCAVKGFYPSDIAVEWESNGQPENNYKTTPPVLDSDGSFFLVSKLTVDKSRWQQGNVFSCSVMHEALHNHYTQKSLSLSPGK
notes: also called IgFD-33 (ProA)

Experiments:
[1] = molecular target: T1, CD3 on T cells (Jurkat T cells; PBMC-T cells); experiment: flow cytometry on Jurkat T cells; protein purified on CH1 resin
T1 construct: whole, on cells; the target is inferred from the anti-CD3 arm of the constructs

[2] = molecular target: T1, CD3 on T cells (Jurkat T cells; PBMC-T …); experiment: flow cytometry on Jurkat T cells; protein purified on Protein A resin
EGFR on F98-EGFR cells [3] = molecular target: T2, EGFR on F98-EGFR cells (UniProt P00533 25-1210, limits assumed); experiment: flow cytometry on F98-EGFR cells; protein purified on Protein A resin
T2 construct: whole, on cells

EGFR on F98-EGFR cells [4] = molecular target: T2, EGFR on F98-EGFR cells; experiment: flow cytometry on F98-EGFR cells; protein purified on CH1 resin
EGFR on F98-EGFR cells [5] = molecular target: T2, EGFR on F98-EGFR cells; experiment: flow cytometry on F98-EGFR cells
Method: F98-EGFR cells (a DMEM containing 10% FBS, 200 μg/ml G418) were cultured. 2×10⁵ cells were washed by precooled PBS for 3 times, and blocked by 2% FBS (soluble to PBS). IgFD-8, IgFD-9, IgFD-10, IgFD-11, IgFD-18, IgFD-19, IgFD-25, IgFD-26 or IgFD-31 (aEGFR expressed in a laboratory as a control) was added and incubated for 2 h at 4° C. (cells were gently mixed during incubation), unbounded antibodies were washed by 2% FBS (soluble to PBS), and then the remaining cells were incubated by FITC anti-human IgGFc(KPL, Inc., MD) for 1 h at 4° C., and washed by 2% FBS (soluble to PBS) for flow cytometry analysis. As shown in FIG. 7 and Table 4, the anti-CD3/anti-EGFR heterodimers in different forms of fusion could bind to EGFR on F98-EGFR cells, and there was no significant difference in the binding capacity of different heterodimers to F98-EGFR.

T1 sequence (P07766 23-207): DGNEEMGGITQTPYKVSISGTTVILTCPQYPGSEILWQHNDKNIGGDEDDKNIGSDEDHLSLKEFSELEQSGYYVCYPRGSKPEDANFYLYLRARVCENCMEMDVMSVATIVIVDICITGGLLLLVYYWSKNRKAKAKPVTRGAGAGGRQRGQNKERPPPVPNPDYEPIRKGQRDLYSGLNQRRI

| Binder | Kd [1] [nM] | Kd [2] [nM] | Kd (EGFR on F98-EGFR cells [3]) [nM] | Kd (EGFR on F98-EGFR cells [4]) [nM] | Kd (EGFR on F98-EGFR cells [5]) [nM] |
| --- | --- | --- | --- | --- | --- |
| B1 | 8.45 | 7.13 | 19.6 | 12.8 |  |
| B2 |  | 50.7 |  |  | 2.42 |
